In publication PMC3684361:

Target: TET2 catalytic domain (TET2CD: a.a. 916-1921), recombinant from Sf9
Assay: pull-down

B1: OGT, full-length, recombinant from Sf9 (enzyme)
chain: MASSVGNVADSTEPTKRMLSFQGLAELAHREYQAGDFEAAERHCMQLWRQEPDNTGVLLLLSSIHFQCRRLDRSAHFSTLAIKQNPLLAEAYSNLGNVYKERGQLQEAIEHYRHALRLKPDFIDGYINLAAALVAAGDMEGAVQAYVSALQYNPDLYCVRSDLGNLLKALGRLEEAKACYLKAIETQPNFAVAWSNLGCVFNAQGEIWLAIHHFEKAVTLDPNFLDAYINLGNVLKEARIFDRAVAAYLRALSLSPNHAVVHGNLACVYYEQGLIDLAIDTYRRAIELQPHFPDAYCNLANALKEKGSVAEAEDCYNTALRLCPTHADSLNNLANIKREQGNIEEAVRLYRKALEVFPEFAAAHSNLASVLQQQGKLQEALMHYKEAIRISPTFADAYSNMGNTLKEMQDVQGALQCYTRAIQINPAFADAHSNLASIHKDSGNIPEAIASYRTALKLKPDFPDAYCNLAHCLQIVCDWTDYDERMKKLVSIVADQLEKNRLPSVHPHHSMLYPLSHGFRKAIAERHGNLCLDKINVLHKPPYEHPKDLKLSDGRLRVGYVSSDFGNHPTSHLMQSIPGMHNPDKFEVFCYALSPDDGTNFRVKVMAEANHFIDLSQIPCNGKAADRIHQDGIHILVNMNGYTKGARNELFALRPAPIQAMWLGYPGTSGALFMDYIITDQETSPAEVAEQYSEKLAYMPHTFFIGDHANMFPHLKKKAVIDFKSNGHIYDNRIVLNGIDLKAFLDSLPDVKIVKMKCPDGGDNADSSNTALNMPVIPMNTIAEAVIEMINRGQIQITINGFSISNGLATTQINNKAATGEEVPRTIIVTTRSQYGLPEDAIVYCNFNQLYKIDPSTLQMWANILKRVPNSVLWLLRFPAVGEPNIQQYAQNMGLPQNRIIFSPVAPKEEHVRRGQLADVCLDTPLCNGHTTGMDVLWAGTPMVTMPGETLASRVAASQLTCLGCLELIAKNRQEYEDIAVKLGTDLEYLKKVRGKVWKQRISSPLFNTKQYTMELERLYLQMWEHYAAGNKPDHMIKPVEVTESA
- stoichiometry N: 1
